# Measured values from US20250270315A1 (ELPISCIENCE SUZHOU BIOPHARMA, published 2025).
# T1: C57BL/6 mouse SIRPα ECD recombinant protein (6×His tagged) (C57BL/6 mouse, UniProt P97797 32-373)
# T1 construct: extracellular domain; Bought from Biointron; not shown: 6×His tag
# T1 sequence (looked up): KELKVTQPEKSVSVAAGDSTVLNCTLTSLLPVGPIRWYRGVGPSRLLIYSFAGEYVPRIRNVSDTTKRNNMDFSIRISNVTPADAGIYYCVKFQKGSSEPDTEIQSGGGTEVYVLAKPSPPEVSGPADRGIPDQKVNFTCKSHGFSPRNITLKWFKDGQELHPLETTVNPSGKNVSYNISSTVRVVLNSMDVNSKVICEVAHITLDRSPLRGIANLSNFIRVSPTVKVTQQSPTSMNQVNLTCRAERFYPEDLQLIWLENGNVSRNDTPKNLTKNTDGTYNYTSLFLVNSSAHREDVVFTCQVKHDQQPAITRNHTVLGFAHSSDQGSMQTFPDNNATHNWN
# Columns and labels:
# [1] = biological target: T2, full length human SIRPα v1 stably expressed on CHOK1 or 293F cells (human, UniProt P78324 31-504); assay: FACS, 293F-hSIRPα v1 cells
# T2 construct: whole, on cells; also called CHOK1-human SIRPα v1; CHOK1-hSIRPα v1
# T2 sequence (P78324 31-504): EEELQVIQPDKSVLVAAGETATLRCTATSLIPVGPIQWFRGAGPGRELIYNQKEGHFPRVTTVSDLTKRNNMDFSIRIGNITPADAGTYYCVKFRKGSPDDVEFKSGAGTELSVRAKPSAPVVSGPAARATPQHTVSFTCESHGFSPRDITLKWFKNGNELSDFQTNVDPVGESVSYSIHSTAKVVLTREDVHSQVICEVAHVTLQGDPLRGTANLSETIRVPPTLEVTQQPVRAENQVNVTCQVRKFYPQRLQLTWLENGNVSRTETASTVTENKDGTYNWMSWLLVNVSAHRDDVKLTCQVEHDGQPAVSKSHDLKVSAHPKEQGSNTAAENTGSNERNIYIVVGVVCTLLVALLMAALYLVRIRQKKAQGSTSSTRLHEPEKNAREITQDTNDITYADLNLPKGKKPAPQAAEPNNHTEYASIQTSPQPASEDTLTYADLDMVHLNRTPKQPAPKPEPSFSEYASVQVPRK
# [2] = biological target: full length human SIRPα v1 with a small beta-gal fragment (ED) fused to its C-terminal, expressed in K562 … (human, UniProt P78324 31-504); assay: cell-based or functional assay
# Chain of full length human SIRPα v1 with a small beta-gal fragment (ED) fused to its C-terminal, expressed in K562 … (P78324 31-504): as above
# [3] = biological target: T3, human SIRPα v1 ECD recombinant protein (tag not given) (human, UniProt P78324 31-373); assay: competitive ELISA, mFc-CD47 ECD on coated SIRPα v1 ECD
# T3 construct: extracellular domain; also called biotin labeled soluble human SIRPα v1 ECD recombinant protein; ELISA microplate coated human SIRPα v1 ECD
# T3 sequence (P78324 31-373): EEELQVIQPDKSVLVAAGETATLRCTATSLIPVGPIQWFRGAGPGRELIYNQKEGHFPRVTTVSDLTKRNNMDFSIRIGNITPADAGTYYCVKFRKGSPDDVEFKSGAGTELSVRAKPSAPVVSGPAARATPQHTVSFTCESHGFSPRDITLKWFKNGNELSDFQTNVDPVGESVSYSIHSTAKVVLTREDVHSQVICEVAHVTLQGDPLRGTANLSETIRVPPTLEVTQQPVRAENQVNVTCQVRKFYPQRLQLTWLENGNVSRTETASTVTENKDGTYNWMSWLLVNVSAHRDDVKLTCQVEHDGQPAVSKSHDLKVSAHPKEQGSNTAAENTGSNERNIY
# Method: (§1) Competitive ELISA assay was used to determine whether the purified chimeric antibodies can block CD47 and SIRPα interaction. Briefly, antibody and mFc tagged human CD47 ECD recombinant protein were co-incubated with ELISA microplate coated human SIRPα v1 ECD (FIGS. 6A and 6B) or human SIRPα v2 ECD (FIGS. 7A and 7B) recombinant protein. After washing, HRP labeled anti-mouse Fc 2nd antibody (Sigma) was added and incubated at 37° C. for 1 hour. Then, 100 μl/well of TMB solution (Biotechnology) was added. After incubation for 15 minutes at room temperature, the reaction was stopped by the addition of 50 μl of 1N HCl. OD 450 nm was read. Blocking ratio was determined by blockade of human CD47 ECD recombinant protein binding to ELISA microplate coated human SIRPα ECD recombinant protein. Other than 005, all antibodies as tested can block interaction between human CD47 and different human SIRPα variants.
# [4] = biological target: T4, human SIRPβ stably expressed on CHOK1 cells (human, UniProt O00241 30-398); assay: FACS, CHOK1-hSIRPβ cells
# T4 construct: whole, on cells; also called CHOK1-human SIRPB; CHOK1-hSIRPβ
# T4 sequence (O00241 30-398): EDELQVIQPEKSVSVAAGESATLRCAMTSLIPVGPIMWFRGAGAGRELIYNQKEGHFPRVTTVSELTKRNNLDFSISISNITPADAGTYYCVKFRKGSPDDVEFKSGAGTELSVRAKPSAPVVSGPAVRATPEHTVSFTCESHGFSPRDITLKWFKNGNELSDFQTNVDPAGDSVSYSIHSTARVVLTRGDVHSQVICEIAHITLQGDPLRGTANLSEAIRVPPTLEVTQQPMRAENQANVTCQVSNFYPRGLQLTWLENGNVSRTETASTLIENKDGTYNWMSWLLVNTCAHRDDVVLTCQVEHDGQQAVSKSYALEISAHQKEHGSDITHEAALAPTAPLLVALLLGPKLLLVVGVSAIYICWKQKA
# From the text: (§2) Binding activity of the purified chimeric antibodies against SIRPβ and SIRPBI was detected by ELISA assay using recombinant proteins of human SIRPβ ECD (FIGS. 3A and 3B), human SIRPBI ECD (FIGS. 3D and 3E) and FACS assay using CHOK 1 cells stably expressing human SIRPB (FIG. 3C).
# [5] = biological target: T5, human SIRPα v2 ECD recombinant protein (tag not given) (human); assay: competitive ELISA, mFc-CD47 ECD on coated SIRPα v2 ECD
# T5 construct: extracellular domain; also called ELISA microplate coated human SIRPα v2 ECD
# Method: as §1
# [6] = biological target: T6, human SIRPβ ECD recombinant protein (6×His tagged) (human, UniProt O00241 30-371); assay: ELISA, hSIRPβ ECD
# T6 construct: extracellular domain; Bought from Sino Biological; also called hSIRPβ ECD; not shown: 6×His tag
# T6 sequence (O00241 30-371): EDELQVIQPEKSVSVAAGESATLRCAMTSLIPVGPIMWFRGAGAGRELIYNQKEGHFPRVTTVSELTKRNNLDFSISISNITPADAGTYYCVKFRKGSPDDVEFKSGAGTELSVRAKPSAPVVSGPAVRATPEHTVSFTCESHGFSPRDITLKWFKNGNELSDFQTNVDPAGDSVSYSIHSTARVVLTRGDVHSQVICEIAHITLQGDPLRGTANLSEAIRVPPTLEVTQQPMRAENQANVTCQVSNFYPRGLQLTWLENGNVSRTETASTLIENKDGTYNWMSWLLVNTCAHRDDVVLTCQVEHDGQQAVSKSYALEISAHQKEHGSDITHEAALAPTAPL
# From the text: as §2
# [7] = biological target: Human SIRPα v1 (antigen of the Octet and Biacore affinity measurements) (human, UniProt P78324 31-370, limits assumed); assay: BLI (Octet), 1:1 binding model
# Chain of Human SIRPα v1 (antigen of the Octet and Biacore affinity measurements) (P78324 31-370 limits assumed): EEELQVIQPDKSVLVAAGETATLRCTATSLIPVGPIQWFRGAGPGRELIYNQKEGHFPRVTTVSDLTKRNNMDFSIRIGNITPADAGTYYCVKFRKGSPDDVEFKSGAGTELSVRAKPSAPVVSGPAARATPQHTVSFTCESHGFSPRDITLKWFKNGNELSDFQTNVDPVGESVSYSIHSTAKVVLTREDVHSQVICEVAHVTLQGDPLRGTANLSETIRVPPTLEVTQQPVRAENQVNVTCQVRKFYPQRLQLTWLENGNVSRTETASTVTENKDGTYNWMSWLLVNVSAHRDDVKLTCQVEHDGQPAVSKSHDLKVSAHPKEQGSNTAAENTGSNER
# Method: The purified chimeric antibodies were characterized for binding affinity against human SIRPα v1, human SIRPα v2 using Bio-Layer Interferometry technology (Octet system). The association and dissociation curves were fit with 1:1 binding model, and the Ka/Kd/KD values for each antibody were calculated.
# [8] = biological target: T7, mFc tagged human SIRPα v1 ECD recombinant protein (human, UniProt P78324 31-373); assay: competitive ELISA binning, mFc-SIRPα v1 ECD; competitor 042c
# T7 construct: extracellular domain; Bought from Biointron; not shown: mouse IgG Fc (mFc) tag
# T7 sequence (P78324 31-373): as the sequence (P78324 31-373) above
# Method: (§3) Competitive ELISA assay was used for epitope binning of purified chimeric antibodies. Briefly excessive competitor antibody and mFc tagged human SIRPα v1 ECD recombinant protein were co-incubated with ELISA microplate coated antibody. After washing, HRP labeled anti-mouse Fc 2nd antibody (Sigma) was added and incubated at 37° C. for 1 hour. Then, 100 μl/well of TMB solution (Biotechnology) was added. After incubation for 15 minutes at room temperature, the reaction was stopped by the addition of 50 μl of 1N HCl. OD 450 nm was read. Competition ratio was calculated. The antibodies that can compete each other for binding to SIRPα may have related binding epitopes.
# [9] = biological target: T7, mFc tagged human SIRPα v1 ECD …; assay: competitive ELISA binning, mFc-SIRPα v1 ECD; competitor 025c
# Method: as §3
# [10] = biological target: T1, C57BL/6 mouse SIRPα ECD recombinant …; assay: ELISA, recombinant C57BL/6 mouse SIRPα ECD
# From the text: Species cross reactivity of purified chimeric antibodies was detected by ELISA assay using recombinant protein of C57BL/6 mouse SIRPα ECD (FIG. 5A) and FACS assay using CHOK 1 cells stably expressing cyno SIRPα (FIGS. 5B and 5C). All antibodies as tested bind to cyno SIRPα at different levels but have no species cross reactivity against C57BL/6 mouse SIRPα.
# [11] = biological target: T8, human SIRPβL ECD recombinant protein (6×His tagged) (human, UniProt Q5TFQ8 30-371); assay: ELISA, hSIRPβI ECD
# T8 construct: given variously as SIRPBL, SIRPBI and SIRPβI; Bought from Biointron; also called human SIRPBL ECD; human SIRPBI ECD
# T8 sequence (Q5TFQ8 30-371 limits assumed): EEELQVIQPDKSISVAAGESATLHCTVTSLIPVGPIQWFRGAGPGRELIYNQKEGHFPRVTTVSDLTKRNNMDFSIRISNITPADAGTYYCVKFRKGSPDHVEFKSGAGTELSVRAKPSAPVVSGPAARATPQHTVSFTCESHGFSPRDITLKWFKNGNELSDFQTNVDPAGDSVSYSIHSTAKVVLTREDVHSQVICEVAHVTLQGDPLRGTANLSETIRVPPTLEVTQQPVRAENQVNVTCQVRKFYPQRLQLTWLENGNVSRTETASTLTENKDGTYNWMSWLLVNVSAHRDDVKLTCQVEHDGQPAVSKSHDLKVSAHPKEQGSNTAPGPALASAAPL
# From the text: as §2
# [12] = biological target: T9, human SIRPγ stably expressed on 293F cells (human, UniProt Q9P1W8 29-387); assay: FACS, 293F-human SIRPγ cells
# T9 construct: whole, on cells
# T9 sequence (Q9P1W8 29-387): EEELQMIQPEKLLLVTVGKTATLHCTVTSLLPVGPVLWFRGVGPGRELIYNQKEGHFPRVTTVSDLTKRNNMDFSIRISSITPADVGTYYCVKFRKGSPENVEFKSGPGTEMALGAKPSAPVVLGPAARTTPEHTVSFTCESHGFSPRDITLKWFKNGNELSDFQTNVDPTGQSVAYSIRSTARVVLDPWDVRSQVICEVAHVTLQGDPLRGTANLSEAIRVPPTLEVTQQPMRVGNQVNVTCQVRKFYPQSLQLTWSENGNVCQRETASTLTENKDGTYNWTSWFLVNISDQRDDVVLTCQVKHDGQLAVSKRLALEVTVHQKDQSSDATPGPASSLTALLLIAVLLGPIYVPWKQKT
# [13] = biological target: T10, cyno SIRPγ ECD recombinant protein (cyno); assay: ELISA, cyno SIRPγ ECD
# T10 construct: extracellular domain
# [14] = biological target: T2, full length human SIRPα v1 stably …; assay: FACS, CHOK1-hSIRPα v1 cells
# [15] = biological target: T7, mFc tagged human SIRPα v1 ECD …; assay: competitive ELISA binning, mFc-SIRPα v1 ECD; competitor hu1H9G4
# Method: as §3
binder,measurement,setting,value
"005c (antibody, V domains shown, also called chimeric antibody 005c) VH: EVKLVESGGGLVQPGGSLSLSCAASGFTFTDYYMSWVRQPPGKALEWLGFIKNEANGYTTESSASVKGRFTISRDNSQSILYLQMNALRAEDSATYYCARYDYYGSNYNWYFDAWGTGTTVTVSS VL: DIVMTQSQKFMSPSVGDRVSITCKASQNVRTAVAWYQQKPGQSPKVLIHLASKRHTGVPDRFTGSGSGTDFTLTISNVQSEDLADYFCLQHWIHPLTFGAGTKLELK",EC50,[1],3.88 nM
same,"SHP-1 recruitment blocking, IC50",[2],3.85 nM
same,"SHP-1 recruitment blocking, TOP blocking (%)",[2],76.4%
"073c (antibody, V domains shown, also called chimeric antibody 073c) VH: QIQLVQSGPELKKPGETVKISCKASGYTFTTYGMSWVKQAPGKGLKWMVWINTYSGVPTYADDFKGRFAFSLETSASTSYLQINNLKNEDTATYFCARDPHYYGSSPAWFVYWGQGTLVTVSA VL: DIVMTQSQKFMSTTIGDRVSITCEASQIVGIAVAWYQQKPGQSPKLLIYSASNRYTGVPDRFTGSGSGTDFTLTISNMQSEDLANYFCQQYSAYPFTFGSGTKLEVK",IC50,[3],2.74 nM
same,TOP blocking (%),[3],95.1%
same,EC50,[4],22.9 nM
same,TOP MFI,[4],2630 MFI
same,IC50,[5],4.92 nM
same,TOP blocking (%),[5],82.8%
same,EC50,[6],2.14 nM
same,TOP OD450,[6],3.07 OD450
same,Kd,[7],6.07 nM
same,koff,[7],0.00303 s⁻¹
same,kon,[7],499000 M⁻¹ s⁻¹
same,% Competition,[8],93.6%
same,% Competition,[9],9.1%
same,binding result,[10],no binding
same,EC50,[11],0.27 nM
same,TOP OD450,[11],2.64 OD450
same,EC50,[12],12.6 nM
same,TOP MFI,[12],728 MFI
same,EC50,[13],45.5 nM
same,TOP OD450,[13],0.92 OD450
same,EC50,[14],1.5 nM
same,TOP MFI,[14],67800 MFI
same,% Competition,[15],37.7%
same,"SHP-1 recruitment blocking, IC50",[2],5.66 nM
same,"SHP-1 recruitment blocking, TOP blocking (%)",[2],51.2%
